According to patent JP2000154149A (dated 2000):
Where a chain is given by its changes, count along the chain named.

T1: ヒトFas抗原 on human lymphocyte cell line HPB-ALL (human, UniProt P25445 26-335)
T1 sequence (looked up): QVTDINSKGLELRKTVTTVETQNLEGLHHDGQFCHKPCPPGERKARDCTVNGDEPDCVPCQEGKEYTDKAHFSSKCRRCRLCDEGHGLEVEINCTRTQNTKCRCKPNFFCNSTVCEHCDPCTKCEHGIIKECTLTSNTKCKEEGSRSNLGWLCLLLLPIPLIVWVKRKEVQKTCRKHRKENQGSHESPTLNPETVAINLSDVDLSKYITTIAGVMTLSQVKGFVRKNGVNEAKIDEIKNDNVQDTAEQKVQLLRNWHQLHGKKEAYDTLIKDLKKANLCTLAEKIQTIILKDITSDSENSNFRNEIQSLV

B1: 抗ヒトFasヒト化抗体 [B] (expression product of pHμM1-1 and pHκKY2-58 in COS-7 cells; HμM heavy chain + VL-KY light chain) (antibody)
heavy: EVQLVQSGAEVKKPGASVKVSCKASGYTFTDYNMHWVKQAHGKSLEWMGYIYPYNGGTGYNQKFKSKATLTVDNSASTAYMELSSLRSEDTAVYYCARSYYAMDYWGQGTLVTVSSGSASAPTLFPLVSCENSPSDTSSVAVGCLAQDFLPDSITFSWKYKNNSDISSTRGFPSVLRGGKYAATSQVLLPSKDVMQGTDEHVVCKVQHPNGNKEKNVPLPVIAELPPKVSVFVPPRDGFFGNPRKSKLICQATGFSPRQIQVSWLREGKQVGSGVTTDQVQAEAKESGPTTYKVTSTLTIKESDWLSQSMFTCRVDHRGLTFQQNASSMCVPDQDTAIRVFAIPPSFASIFLTKSTKLTCLVTDLTTYDSVTISWTRQNGEAVKTHTNISESHPNATFSAVGEASICEDDWNSGERFTCTVTHTDLPSPLKQTISRPKGVALHRPDVYLLPPAREQLNLRESATITCLVTGFSPADVFVQWMQRGQPLSPEKYVTSAPMPEPQAPGRYFAHSILTVSEEEWNTGETYICVVAHEALPNRVTERTVDKSTGKPTLYNVSLVMSDTAGTCY
light: DVVMTQSPLSLPVTLGQPASISCRSSKSLVHSNGNTYLHWYLQKPGQSPKLLIYKVSNRFSGVPDRFSGSGSGTDFTLKISRVEAEDVGVYYCSQSTHVPPAFGQGTKVEIKRTVAAPSVFIFPPSDEQLKSGTASVVCLLNNFYPREAKVQWKVDNALQSGNSQESVTEQDSKDSTYSLSSTLTLSKADYEKHKVYACEVTHQGLSSPVTKSFNRGEC
B2: 抗ヒトFasヒト化抗体 [C] (expression product of pHμM1-1 and pHκKF2-19 in COS-7 cells; HμM heavy chain + VL-KF light chain) (antibody)
heavy: B1 heavy
light: B1 light with Y92F
B3: 抗ヒトFasヒト化抗体 [D] (expression product of pHμM1-1 and pHκRY2-10 in COS-7 cells; HμM heavy chain + VL-RY light chain) (antibody)
heavy: B1 heavy
light: B1 light with K50R
B4: 抗ヒトFasヒト化抗体 [E] (expression product of pHμM1-1 and pHκRF2-52 in COS-7 cells; HμM heavy chain + VL-RF light chain) (antibody)
heavy: B1 heavy
light: B1 light with K50R, Y92F
B5: 抗ヒトFasヒト化抗体 [G] (expression product of pHμH5-1 and pHκKF2-19 in COS-7 cells; HμH heavy chain + VL-KF light chain) (antibody)
heavy: B1 heavy with K38R, H41P, K43Q, S44G
light: B1 light with Y92F
B6: 抗ヒトFasヒト化抗体 [I] (expression product of pHμH5-1 and pHκRF2-52 in COS-7 cells; HμH heavy chain + VL-RF light chain) (antibody)
heavy: B1 heavy with K38R, H41P, K43Q, S44G
light: B1 light with K50R, Y92F
B7: マウス抗ヒトFas抗体CH11(MBL社) (antibody, mouse IgM)
heavy: EVQLQQSGPELVKPGASVKISCKASGYTFTDYNMHWVKQSHGKSLEWIGYIYPYNGGTGYNQKFKSKATLTVDNSSSTAYMELRSLTSEDSAVYYCARSYYAMDYWGQGTSVTVSSESQSFPNVFPLVSCESPLSDKNLVAMGCLARDFLPSTISFTWNYQNNTEVIQGIRTFPTLRTGGKYLATSQVLLSPKSILEGSDEYLVCKIHYGGKNRDLHVPIPAVAEMNPNVNVFVPPRDGFSGPAPRKSKLICEATNFTPKPITVSWLKDGKLVESGFTTDPVTIENKGSTPQTYKVISTLTISEIDWLNLNVYTCRVDHRGLTFLKNVSSTCAASPSTDILTFTIPPSFADIFLSKSANLTCLVSNLATYETLNISWASQSGEPLETKIKIMESHPNGTFSAKGVASVCVEDWNNRKEFVCTVTHRDLPSPQKKFISKPNEVHKHPPAVYLLPPAREQLNLRESATVTCLVKGFSPADISVQWLQRGQLLPQEKYVTSAPMPEPGAPGFYFTHSILTVTEEEWNSGETYTCVVGHEALPHLVTERTVDKSTGKPTLYNVSLIMSDTGGTCY
light: DVVMTQSPLSLPVSLGDQASISCRSSKSLVHSNGNTYLHWYLQKPGQSPKLLIYKVSNRFSGVPDRFSGSGSGTDFTLKISRVEAEDLGVYFCSQSTHVPPAFGGGTKLEIKRADAAPTVSIFPPSSEQLTSGGASVVCFLNNFYPKDINVKWKIDGSERQNGVLNSWTDQDSKDSTYSMSSTLTLTKDEYERHNSYTCEATHKTSTSPIVKSFNRNEC
chain: DDEATILADNKCMCTRVTSRIIPSTEDPNEDIVERNIRIVVPLNNRENISDPTSPLRRNFVYHLSDVCKKCDPVEVELEDQVVTATQSNICNEDDGVPETCYMYDRNKCYTTMVPLRYHGETKMVQAALTPDSCYPD

These binders were tested against T1, ヒトFas抗原 on human lymphocyte cell line … (assay: cell-based or functional assay).

Row | Binder | ED 50 (IgM concentration at which HPB-ALL cell survival is 50%), 細胞障害活性
1 | B1 | 1.1 ng/mL
2 | B2 | 1 ng/mL
3 | B3 | 1.7 ng/mL
4 | B4 | 1.5 ng/mL
5 | B5 | 2.4 ng/mL
6 | B6 | 3.4 ng/mL
7 | B7 | 10.7 ng/mL
